These results are taken from the supplement of paper PMC10567573.

Sequences and labels used below:
B1: SPOPL (parent)
chain: PDDKLTLFCEVSVVQDSVNISGHT
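Also: lentivirally expressed fusions sorted by FACS into six bins by GFP to DsRed ratio, PSI derived from sequencing read proportions per bin multiplied by bin number.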

Variants of B1 are the subject of the data set. Nature of the data set: protein stability index of a GFP-peptide fusion (GPS, HEK-293T) (PSI 1-6); higher = more stable. As to conditions: c terminus: a fixed tail appended.
Regarding PDDKLTPFCEVSVVQDSVNISGHT, the protein stability index came to 4.52.

With PDDKLTVFCEVSVVQDSVNISGHT, the protein stability index amounted to 1.92.

On to PDDKLTKFCEVSVVQDSVNISGHT, for which the protein stability index amounted to 4.78.

Take PDDKLTIFCEVSVVQDSVNISGHT: the protein stability index came to 1.25.

Take PDDKLTDFCEVSVVQDSVNISGHT: the protein stability index came to 4.88.

In the case of PDDKLTAFCEVSVVQDSVNISGHT, the protein stability index turned out to be 4.2.

As for PDDKLTWFCEVSVVQDSVNISGHT, the protein stability index was found to be 1.75.

On to PDDKLTNFCEVSVVQDSVNISGHT, for which the protein stability index was determined as 4.32.

As to PDDKLTTFCEVSVVQDSVNISGHT, the protein stability index is 3.88.

Regarding PDDKLTSFCEVSVVQDSVNISGHT, the protein stability index came to 3.49.

With PDDKLTRFCEVSVVQDSVNISGHT, the protein stability index came to 3.94.

With PDDKLTQFCEVSVVQDSVNISGHT, the protein stability index is 4.62.

As to PDDKLTCFCEVSVVQDSVNISGHT, the protein stability index was 2.72.

PDDKLTGFCEVSVVQDSVNISGHT: the protein stability index turned out to be 4.28.

Regarding PDDKLTYFCEVSVVQDSVNISGHT, the protein stability index was 2.72.

For PDDKLTFFCEVSVVQDSVNISGHT, the protein stability index was 1.81.

In the case of PDDKLTEFCEVSVVQDSVNISGHT, the protein stability index is 4.9.

For PDDKLTLFCEVQVVQDSVNISGHT, the protein stability index was found to be 1.73.

Regarding PDDKLTLFCEVFVVQDSVNISGHT, the protein stability index was 2.22.

For the variant PDDKLTLFCEVKVVQDSVNISGHT, the protein stability index was 2.

As for PDDKLTLFCEVIVVQDSVNISGHT, the protein stability index stood at 2.11.

Consider PDDKLTLFCEVWVVQDSVNISGHT, for which the protein stability index was determined as 1.98.

As for PDDKLTLFCEVTVVQDSVNISGHT, the protein stability index is 1.71.

Take PDDKLTLFCEVEVVQDSVNISGHT: the protein stability index was found to be 2.23.

Regarding PDDKLTLFCEVGVVQDSVNISGHT, the protein stability index was determined as 1.94.

As to PDDKLTLFCEVRVVQDSVNISGHT, the protein stability index was 2.32.

Regarding PDDKLTLFCEVLVVQDSVNISGHT, the protein stability index is 2.1.

Consider PDDKLTLFCEVNVVQDSVNISGHT, for which the protein stability index was determined as 2.79.

Take PDDKLTLFCEVHVVQDSVNISGHT: the protein stability index was determined as 1.71.

Take PDDKLTLFCEVCVVQDSVNISGHT: the protein stability index is 2.73.

As for PDDKLTLFCEVAVVQDSVNISGHT, the protein stability index is 3.08.

For PDDKLTLFCEVMVVQDSVNISGHT, the protein stability index is 1.79.

As to PDDKLTLFCEVDVVQDSVNISGHT, the protein stability index came out at 3.66.

With PDDKLTLFCEVPVVQDSVNISGHT, the protein stability index was 3.81.

Consider PDDKLTLFCEVVVVQDSVNISGHT, for which the protein stability index came to 2.53.

For the variant PDDKLTLCCEVSVVQDSVNISGHT, the protein stability index amounted to 3.22.

Turning to PDDKLTLHCEVSVVQDSVNISGHT, the protein stability index was 3.64.

For the variant PDDKLTLVCEVSVVQDSVNISGHT, the protein stability index turned out to be 1.97.

Regarding PDDKLTLTCEVSVVQDSVNISGHT, the protein stability index was found to be 2.9.

For PDDKLTLLCEVSVVQDSVNISGHT, the protein stability index is 2.91.

For PDDKLTLECEVSVVQDSVNISGHT, the protein stability index worked out at 4.39.

As for PDDKLTLRCEVSVVQDSVNISGHT, the protein stability index was 2.77.

As to PDDKLTLYCEVSVVQDSVNISGHT, the protein stability index is 2.08.

With PDDKLTLWCEVSVVQDSVNISGHT, the protein stability index is 1.62.

Turning to PDDKLTLKCEVSVVQDSVNISGHT, the protein stability index worked out at 3.48.

For the variant PDDKLTLGCEVSVVQDSVNISGHT, the protein stability index worked out at 4.82.

As to PDDKLTLNCEVSVVQDSVNISGHT, the protein stability index is 4.86.

As for PDDKLTLMCEVSVVQDSVNISGHT, the protein stability index came to 2.86.

With PDDKLTLICEVSVVQDSVNISGHT, the protein stability index was 1.3.

With PDDKLTLPCEVSVVQDSVNISGHT, the protein stability index stood at 4.79.

For PDDKLTLQCEVSVVQDSVNISGHT, the protein stability index was 4.5.

With PDDKLTLDCEVSVVQDSVNISGHT, the protein stability index worked out at 4.94.

Regarding PDDKLTLSCEVSVVQDSVNISGHT, the protein stability index came to 3.96.

As for PDDKLTLACEVSVVQDSVNISGHT, the protein stability index came out at 3.65.

With PDDKLTLFCSVSVVQDSVNISGHT, the protein stability index was 1.58.

Turning to PDDKLTLFCLVSVVQDSVNISGHT, the protein stability index came out at 3.02.

Regarding PDDKLTLFCKVSVVQDSVNISGHT, the protein stability index worked out at 1.45.

In the case of PDDKLTLFCDVSVVQDSVNISGHT, the protein stability index was 2.76.

As to PDDKLTLFCQVSVVQDSVNISGHT, the protein stability index came out at 2.27.

Take PDDKLTLFCNVSVVQDSVNISGHT: the protein stability index is 2.74.

PDDKLTLFCRVSVVQDSVNISGHT: the protein stability index was found to be 1.94.

For PDDKLTLFCAVSVVQDSVNISGHT, the protein stability index came to 2.48.

On to PDDKLTLFCFVSVVQDSVNISGHT, for which the protein stability index worked out at 3.15.

Turning to PDDKLTLFCTVSVVQDSVNISGHT, the protein stability index turned out to be 3.3.

For PDDKLTLFCMVSVVQDSVNISGHT, the protein stability index was determined as 3.02.

In the case of PDDKLTLFCPVSVVQDSVNISGHT, the protein stability index was 3.44.

Consider PDDKLTLFCGVSVVQDSVNISGHT, for which the protein stability index worked out at 2.52.

Turning to PDDKLTLFCHVSVVQDSVNISGHT, the protein stability index worked out at 2.12.

As for PDDKLTLFCWVSVVQDSVNISGHT, the protein stability index was found to be 2.53.

For the variant PDDKLTLFCCVSVVQDSVNISGHT, the protein stability index came to 2.81.

With PDDKLTLFCIVSVVQDSVNISGHT, the protein stability index came to 2.63.

Consider PDDKLTLFCVVSVVQDSVNISGHT, for which the protein stability index is 3.33.

In the case of PDDKLTLFCEVSGVQDSVNISGHT, the protein stability index is 4.14.

PDDKLTLFCEVSDVQDSVNISGHT: the protein stability index is 4.61.

Turning to PDDKLTLFCEVSIVQDSVNISGHT, the protein stability index was determined as 2.51.

In the case of PDDKLTLFCEVSNVQDSVNISGHT, the protein stability index is 4.03.

With PDDKLTLFCEVSCVQDSVNISGHT, the protein stability index is 2.57.

For the variant PDDKLTLFCEVSEVQDSVNISGHT, the protein stability index amounted to 4.61.

Consider PDDKLTLFCEVSQVQDSVNISGHT, for which the protein stability index was found to be 3.95.

For the variant PDDKLTLFCEVSRVQDSVNISGHT, the protein stability index turned out to be 4.14.

On to PDDKLTLFCEVSAVQDSVNISGHT, for which the protein stability index came to 3.35.

For the variant PDDKLTLFCEVSWVQDSVNISGHT, the protein stability index is 2.73.

With PDDKLTLFCEVSMVQDSVNISGHT, the protein stability index came to 2.12.

Regarding PDDKLTLFCEVSFVQDSVNISGHT, the protein stability index stood at 2.03.

Take PDDKLTLFCEVSKVQDSVNISGHT: the protein stability index was found to be 3.11.

As for PDDKLTLFCEVSSVQDSVNISGHT, the protein stability index was 3.6.

As to PDDKLTLFCEVSPVQDSVNISGHT, the protein stability index was 3.99.

As for PDDKLTLFCEVSYVQDSVNISGHT, the protein stability index stood at 1.94.

On to PDDKLTLFCEVSHVQDSVNISGHT, for which the protein stability index was found to be 3.63.

For the variant PDDKLTLFCEVSLVQDSVNISGHT, the protein stability index is 2.02.

On to PDDKLTLFCEVSTVQDSVNISGHT, for which the protein stability index amounted to 3.79.

As for PDDKLWLFCEVSVVQDSVNISGHT, the protein stability index was determined as 3.41.

Regarding PDDKLYLFCEVSVVQDSVNISGHT, the protein stability index was 1.25.

Consider PDDKLSLFCEVSVVQDSVNISGHT, for which the protein stability index turned out to be 2.32.
